Target: PCBP1 KH1/2 (mouse, UniProt P60335 13-170)
Assay: filter binding

Sequence of PCBP1 KH1/2 (P60335 13-170): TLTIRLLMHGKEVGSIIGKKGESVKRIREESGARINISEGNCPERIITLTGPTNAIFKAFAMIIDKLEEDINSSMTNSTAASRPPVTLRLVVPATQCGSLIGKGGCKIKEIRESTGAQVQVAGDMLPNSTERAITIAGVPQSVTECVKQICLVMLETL

B1: R7a1 (structured_RNA)
RNA: GGAGUGACCUUCUCAACUUUAUAUUCCCUUUACCCCUUCCCCCAAGGCACU
Kd: 42.3 ± 12 nM
